Measurements reported in patent US20240254220A1 (CENTRICSBIO, published 2024).
Positions count from the first letter of the chain named.

Target: T1, CD300c antigen (11832-H08H, Sino Biological) (human, UniProt Q08708 21-183)
T1 construct: Bought antigen; also called CD300c protein; CD300 antigen-like family member C
T1 sequence (looked up): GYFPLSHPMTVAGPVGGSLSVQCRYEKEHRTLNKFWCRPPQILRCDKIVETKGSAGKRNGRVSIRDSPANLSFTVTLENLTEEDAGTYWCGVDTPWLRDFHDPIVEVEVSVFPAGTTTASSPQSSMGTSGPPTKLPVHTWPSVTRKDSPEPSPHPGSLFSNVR
Assay: binding ELISA, plate coated with CD300c antigen (8 µg/mL), HRP anti-Fc IgG detection
Description: In order to identify the antigen-binding ability of the anti-CD300c monoclonal antibodies produced in Example 1, binding ELISA was performed. Specifically, a CD300c antigen (11832-H08H, Sino Biological) or a CD300a antigen (12449-H08H, Sino Biological) in a coating buffer (0.1 M sodium carbonate, pH 9.0) was dispensed into an ELISA plate at a concentration of 8 μg/mL per well, followed by incubation at room temperature for 3 hours to allow the antigen to be bound to the plate. The unbound antigens were removed by washing three times using phosphate buffered saline-Tween 20 (PBST), and then 300 μL of PBST supplemented with 5% bovine serum albumin (BSA) was added to each well, followed by incubation at room temperature for 1 hour and then washing using PBST. Then, an anti-CD300c monoclonal antibody was diluted in quadruplicate and added thereto, followed by incubation for 1 hour at room temperature for antigen binding. After 1 hour, washing was performed three times using PBST to remove unbound anti-CD300c monoclonal antibody, and then 4 μg/mL of an antibody for detection (HRP conjugated anti-Fc IgG) was added, followed by incubation again at room temperature for 1 hour. Subsequently, the unbound antibody for detection was removed using PBST, and then TMB solution was added, followed by incubation for 10 minutes for development. Then, 2 N sulfuric acid solution was added to terminate the development reaction, and the absorbance was measured at 450 nm to identify the antibodies specifically binding to the CD300c antigen.

B1: CK1 (antibody, V domains shown)
VH: EVQLLESGGGLVQPGGSLRLSCAASGFTFSRYAMTWVRQAPGKGLEWVSSMSGTGGTTYYADSVKGRFTISRDNSKNTLYLQMNSLRAEDTAVYYCARGAYGFDHWGQGTLVTVSS
VL: EIVLTQSPGTLSLSPGERATLSCRASQSIGNYLNWYQQKPGQAPRLLIYDASNLETGIPDRFSGSGSGTDFTLTISRLEPEDFAVYYCQQSSAIPYTFGQGTKVEIK
notes: also called anti-CD300c monoclonal antibody CK1; CB301 antibody CK1
B1 was tested, and the EC50 was 0.056 µg/mL.

B2: CK2 (antibody, V domains shown)
VH: EVQLLESGGGLVQPGGSLRLSCAASGFTFSSYGMHWVRQAPGKGLEWVSAISGSGTSIYYADSVKGRFTISRDNSKNTLYLQMNSLRAEDTAVYYCARGGTAFDYWGQGTLVTVSS
VL: EIVLTQSPGTLSLSPGERATLSCRASQRSDNYLAWYQQKPGQAPRLLIYDASNRATGIPDRFSGSGSGTDFTLTISRLEPEDFAVYYCQQSYSTPFTFGQGTKVETK
notes: also called anti-CD300c monoclonal antibody CK2; CB301 antibody CK2
With B2 the EC50 was 0.033 µg/mL.

B3: CK3 (antibody, V domains shown)
VH: RVQLLESGGGLVQPGGSLRLSCAASGFTFSSYAISWVRQAPGKGLEWVSATSGSGRATYYADSVKGRFTISRDNSKNTLYLQMNSLRAEDTAVYYCARDTWWEGYFDLWGQGTLVTVSS
VL: EIVLTQSPGTLSLSPGERATLSCQASHISTHLNWYQQKPGQAPRLLIYGASSRATGIPDRFSGSGSGTDFTLTISRLEPEDFAVYYCQQYNTYPPTFGQGTKVEIK
notes: also called anti-CD300c monoclonal antibody CK3; CB301 antibody CK3
B3 gave an EC50 of 0.793 µg/mL.

B4: CL4 (antibody, V domains shown)
VH: RVQLLESGGGLVQPGGSLRLSCAASGFTFGSNYMSWVRQAPGKGLEWVSTISGSGTSTYYADSLKGRFTISRDNSKNTLYLQMNSLRAEDTAVYYCARGMWGMDVWGQGTLVTVSS
VL: QSVLTQPPSASGTPGQRVTISCTGKHRHTVNWYQLLPGTAPKLLIYLDSERPSGVPDRFSGSKSGTSASLAISGLRSEDEADYYCQSYDSSSVVFGGGTKLTVL
notes: also called anti-CD300c monoclonal antibody CL4; CB301 antibody CL4
In the case of B4, the EC50 is reported as 0.031 µg/mL.

B5: CL5 (antibody, V domains shown)
VH: RVQLLESGGGLVQPGGSLRLSCAASGFTFSSYAMHWVRQAPGKGLEWVSSISGGGYGTYYADSVKGRFTISRDNSKNTLYLQMNSLRAEDTAVYYCARSTVWAFDIWGQGTLVTVSS
VL: QSVLTQPPSASGTPGQRVTISCSGNNIGSKSVHWYQQLPGTAPKLLIYDVSKRPSERPDRFSGSKSGTSASLAISDLRSEDEADYYCQSFDSSGTWIFGGGTKLTVL
notes: also called anti-CD300c monoclonal antibody CL5; CB301 antibody CL5
For B5, the EC50 was 0.032 µg/mL.

B6: CL6 (antibody, V domains shown)
VH: EVQLLESGGGLVQPGGSLRLSCAASGFTFSSYGMHWVRQAPGKGLEWVSAISGSGGSTYYADSVKGRFTISRDNSKNTLYLQMNSLRAEDTAVYYCAVSGAGRGFFDYWGQGTLVTVSS
VL: QSVLTQPPSASGTPGQRVTISCSGSSSNIGSNYVYWYQQLPGTAPKLLIYEDNKRPSGVPDRFSGSKSGTSASLAISGLRSEDEADYYCSSYTSSSTVIFGGGTKLTVL
notes: also called anti-CD300c monoclonal antibody CL6; CB301 antibody CL6
In the case of B6, the EC50 is reported as 0.148 µg/mL.

B7: CL9 (antibody, V domains shown)
VH: EVQLLESGGGLVQPGGSLRLSCAASGFTFSSYYWSWVRQAPGKGLEWVSAISGSGGSTYYADSVKGRFTISRDNSKNTLYLQMNSLRAEDTAVYYCARIDVYGFDIWGQGTLVTVSS
VL: QSVLTQPPSASGTPGQRVTISCSGSTSNIGTNYVYWYQQLPGTAPKLLIYDNNNRPSGVPDRFSGSKSGTSASLAISGLRSEDEADYYCQTWDSSTDVVFGGGTKLTVL
notes: also called anti-CD300c monoclonal antibody CL9; CB301 antibody CL9
With B7 the EC50 was 0.094 µg/mL.

B8: SK11 (antibody, V domains shown)
VH: B2 VH with E1R, S31T, T56G, I58T, G100L, T101S, A102G, F103L
VL: B2 VL with A25S, R28G, S29I, D30T, F96L, T106I
notes: also called anti-CD300c monoclonal antibody SK11; CB301 antibody SK11
In the case of B8, the EC50 is reported as 0.052 µg/mL.

B9: SK12 (antibody, V domains shown)
VH: B2 VH with E1R, G33A, T56G, S57D, I58T, Y60H, A97T, G100L, T101S, A102G
VL: EIVLTQSPGTLSLSPGERATLSCRASQSISSYLNWYQQKPGQAPRLLIYDASNRAPGIPDRFSGSGSGTDFTLTISRLEPEDFAVYYCQQSYSIPITFGQGTKVEIKF
notes: also called anti-CD300c monoclonal antibody SK12; CB301 antibody SK12
B9 gave an EC50 of 0.067 µg/mL.

B10: SK13 (antibody, V domains shown)
VH: RVQLLESGGGLVQPGGSLRLSCAASGFTFSDYAMSWVRQAPGKGLEWVSSISSSSSYIYYTDSVKGRFTISRDNSKNTLYLQMNSLRAEDTAVYYCARGGYGFDYWGQGTLVTVSS
VL: EIVLTQSPGTLSLSPGERATLSCRASQSISSYLNWYQQKPGQAPRLLIYSASSRPQGIPDRFSGSGSGTDFTLTISRLEPEDFAVYYCQQYDDLPFTFGQGTKVEIK
notes: also called anti-CD300c monoclonal antibody SK13; CB301 antibody SK13
In the case of B10, the EC50 is reported as 0.044 µg/mL.

B11: SK14 (antibody, V domains shown)
VH: EVQLLESGGGLVQPGGSLRLSCAASGFTFSNFAIAWVRQAPGKGLEWVSAISGRGTSTYYADSVKGRFTISRDNSKNTLYLQMNSLRAEDTAVYYCARGVSGFDSWGQGTLVTVSS
VL: B2 VL with R28S, S29I, D30S, N31S, Y32H, A51T, T106I
notes: also called anti-CD300c monoclonal antibody SK14; CB301 antibody SK14
In the case of B11, the EC50 is reported as 0.065 µg/mL.

B12: SK15 (antibody, V domains shown)
VH: B2 VH with E1R, G33A, S52N, T56G, I58T, M83T, G100L, T101Q, A102G
VL: B1 VL with R24Q, S28D, G30T, N53S, S92Y, A93S, I94T, Y96I
notes: also called anti-CD300c monoclonal antibody SK15; CB301 antibody SK15
B12 was tested, and the EC50 was 14.7 µg/mL.

B13: SK16 (antibody, V domains shown)
VH: B11 VH with E1R, N31S, F32Y, I34M, A35S, S52N, R54S, T56G, Y59L
VL: B2 VL with A25I, R28S, S29I, D30S, N31S, A34N, N53L, S93K, F96I, T106I
notes: also called anti-CD300c monoclonal antibody SK16; CB301 antibody SK16
With B13 the EC50 was 2.42 µg/mL.

B14: SK17 (antibody, V domains shown)
VH: EVQLLESGGGLVQPGGSLRLSCAASGFTFSSYYWSWVRQAPGKGLEWVSTITGSGGSTDYANSVKGRFTISRDNSKNTLYLQMNSLRAEDTAVYYCATGGGIFDYWGQGTLVTVSS
VL: EIVLTQSPGTLSLSPGERATLSCQASQTISNYLNWYQQKPGQAPRLLIYDASNRATGIPDRFSGSGSGTDFTLTISRLEPEDFAVYYCQQYNSYPPSFGQGTKVEIK
notes: also called anti-CD300c monoclonal antibody SK17; CB301 antibody SK17
Work on B14 yielded an EC50 of 0.054 µg/mL.
